Drawing on the Immune Epitope Database (IEDB), this text covers Kd for 17 sequences.

What is called pKd is −log10 of the Kd, conventionally taken in molar units.

One assay concerns the target HLA-B*58:01. Briefly: IEDB peptide-MHC binding, purified MHC/direct/fluorescence; filed as Kd, often an IC50 or EC50 that approximates it; ≥ and ≤ were set here for values at or beyond the usual limits of such assays. The following applies: source organism: Mycobacterium tuberculosis variant bovis BCG str. Pasteur 1173P2.
For the next assay, the target named is HLA-A*23:01. Briefly: IEDB peptide-MHC binding, purified MHC/competitive/radioactivity; filed as Kd, often an IC50 or EC50 that approximates it; ≥ and ≤ were set here for values at or beyond the usual limits of such assays.
Another assay has as its target HLA-A*26:01. The description is as above.
The next assay has as its target HLA-A*01:01. The description is as above.
The target of another assay is HLA-A*29:02. Described as above.
For the next assay, the target named is HLA-A*30:02. Described as above.
In another assay the target is HLA-A*24:02. The assay is described as above.
Another assay has as its target HLA-A*68:01. Described as above.
A further assay has as its target HLA-A*30:01. Described as above.
The next assay has as its target HLA-A*33:01. Described as above.
Another assay deals with HLA-A*11:01. The description is as above.
For a further assay, the target named is HLA-A*03:01. The assay is described as above. Particulars: source organism: Vaccinia virus WR.
For the next assay, the target named is HLA-A*31:01. The description is as above. Particulars: source organism: Vaccinia virus WR.
A further assay concerns the target HLA-B*08:01. Described as above. Particulars: source organism: Dengue virus 3 Martinique/1243/1999.
Setting [1] is: source organism: SARS coronavirus Tor2.
The mark [2] stands for this setting: source organism: Mammarenavirus whitewaterense.
Setting [3] is: source organism: Dengue virus 3 Martinique/1243/1999.
Where [4] appears, read: source organism: Lassa virus Josiah.
Setting [5] is: source organism: Vaccinia virus WR.
Where [6] appears, read: source organism: Mammarenavirus machupoense.
Setting [7] is: source organism: Dengue virus 1 Brazil/97-11/1997.

pKd: −log10 of the molar value.

With AAAAPYAGW, in the assay with HLA-B*58:01, the pKd is 7.57.

Take ACADGTRHTY: the pKd in the assay with HLA-A*23:01 (setting [1]) is not above 4.15; in the assay with HLA-A*26:01 (setting [1]), not above 4.06; in the assay with HLA-A*01:01 (setting [1]) it was 5.67; with HLA-A*29:02 (setting [1]), 5.21; with HLA-A*30:02 (setting [1]), 7.48; in the assay with HLA-A*24:02 (setting [1]) it was not above 4.15.

For DHHFTPQII, the pKd is 4.95 with HLA-A*23:01 (setting [2]); not above 4.11 in the assay with HLA-A*26:01 (setting [2]); 7.21 in the assay with HLA-A*01:01 (setting [2]); 5.53 in the assay with HLA-A*29:02 (setting [2]); not above 4.29 with HLA-A*30:02 (setting [2]); not above 4.36 in the assay with HLA-A*24:02 (setting [2]).

As for DYLVSTQEF, the pKd with HLA-A*23:01 (setting [1]) is 4.73; in the assay with HLA-A*26:01 (setting [1]), 4.84; with HLA-A*01:01 (setting [1]), not above 4.11; in the assay with HLA-A*29:02 (setting [1]), 6.59; with HLA-A*30:02 (setting [1]), 5.47; with HLA-A*24:02 (setting [1]) it was not above 4.36.

In the case of ETLLPLTQY, the pKd with HLA-A*23:01 (setting [1]) is not above 4.11; with HLA-A*26:01 (setting [1]), 7.36; with HLA-A*01:01 (setting [1]), not above 4.48; with HLA-A*29:02 (setting [1]) it was 6.58; with HLA-A*30:02 (setting [1]) it was 5.37; with HLA-A*24:02 (setting [1]), not above 4.11.

In the case of EVKTCTWPK, the pKd with HLA-A*68:01 (setting [3]) is 7.60; in the assay with HLA-A*30:01 (setting [3]), 5.03; in the assay with HLA-A*33:01 (setting [3]), 8.07.

On to FIAQSKGLY, for which the pKd was not above 4.11 in the assay with HLA-A*23:01 (setting [1]); 7.05 in the assay with HLA-A*26:01 (setting [1]); 6.33 with HLA-A*01:01 (setting [1]); 8.31 with HLA-A*29:02 (setting [1]); 7.61 in the assay with HLA-A*30:02 (setting [1]); not above 4.11 with HLA-A*24:02 (setting [1]).

Turning to FYLYLTFYF, the pKd with HLA-A*23:01 (setting [1]) was not above 4.53; with HLA-A*26:01 (setting [1]), 5.69; in the assay with HLA-A*01:01 (setting [1]) it was 5.43; with HLA-A*29:02 (setting [1]) it was not above 4.12; with HLA-A*30:02 (setting [1]) it was not above 4.01; in the assay with HLA-A*24:02 (setting [1]), not above 4.11.

Regarding GIDVTDLFA, the pKd with HLA-A*23:01 (setting [4]) was not above 4.16; in the assay with HLA-A*26:01 (setting [4]), not above 4.11; in the assay with HLA-A*01:01 (setting [4]), 6.58; in the assay with HLA-A*29:02 (setting [4]), not above 4.10; with HLA-A*30:02 (setting [4]) it was not above 4.39; with HLA-A*24:02 (setting [4]) it was not above 4.11.

Regarding ISAGFSLWIY, the pKd with HLA-A*23:01 (setting [1]) is not above 4.54; in the assay with HLA-A*26:01 (setting [1]), 5.96; with HLA-A*01:01 (setting [1]) it was 7.28; in the assay with HLA-A*29:02 (setting [1]), 8.64; with HLA-A*30:02 (setting [1]), 8.02; with HLA-A*24:02 (setting [1]), not above 4.15.

Consider KTLDISSFY, for which the pKd with HLA-A*11:01 (setting [5]) is 8.19; with HLA-A*68:01 (setting [5]), 6.73; with HLA-A*03:01, 7.72; in the assay with HLA-A*30:01 (setting [5]), 7.63; with HLA-A*33:01 (setting [5]), not above 4.38; in the assay with HLA-A*31:01, 7.05.

Regarding LCMLNNSFYY, the pKd with HLA-A*23:01 (setting [6]) is not above 4.53; with HLA-A*26:01 (setting [6]), not above 4.16; with HLA-A*01:01 (setting [6]) it was 6.21; with HLA-A*29:02 (setting [6]), 8.27; in the assay with HLA-A*30:02 (setting [6]) it was 7.93; with HLA-A*24:02 (setting [6]) it was not above 4.32.

Regarding MFKKRNLTI, the pKd with HLA-A*23:01 (setting [3]) was 6.32; with HLA-B*08:01 it was 7.80; in the assay with HLA-A*30:01 (setting [3]) it was 6.84; with HLA-A*24:02 (setting [3]) it was 6.80.

On to MSFLEKDAPY, for which the pKd with HLA-A*23:01 (setting [1]) is not above 4.15; with HLA-A*26:01 (setting [1]), 6.58; with HLA-A*01:01 (setting [1]) it was 7.19; in the assay with HLA-A*29:02 (setting [1]) it was 6.65; with HLA-A*30:02 (setting [1]), 8.51; in the assay with HLA-A*24:02 (setting [1]), not above 4.15.

For MVLLTMKEK, the values for the pKd with HLA-A*11:01 (setting [7]) and with HLA-A*30:01 (setting [7]) were 6.44 and 5.56, respectively.

NSGPDDQIGY: the pKd was not above 4.15 with HLA-A*23:01 (setting [1]); 5.07 with HLA-A*26:01 (setting [1]); 6.00 with HLA-A*01:01 (setting [1]); 5.13 in the assay with HLA-A*29:02 (setting [1]); 5.17 in the assay with HLA-A*30:02 (setting [1]); not above 4.47 with HLA-A*24:02 (setting [1]).

In the case of NTLISSDGAR, the pKd in the assay with HLA-A*11:01 (setting [5]) was 6.44; with HLA-A*68:01 (setting [5]) it was 8.22; with HLA-A*03:01, 5.63; in the assay with HLA-A*29:02 (setting [5]), not above 4.33; with HLA-A*33:01 (setting [5]), 6.54; in the assay with HLA-A*31:01, 6.59.
